In patent US20090118481A1 one finds concentration giving complete inhibition data, which are given here for one substance.

The target of the test is LS-Rg, chimeric protein of the extracellular domain of human L-selectin joined to the Fc domain of a human G2 immunoglobulin (human) (UniProt P14151). The experiment in a line: competition of unlabeled antibody with radio-labeled 2'-F RNA ligand LF1807 for purified LS-Rg.
Chain of LS-Rg, chimeric protein of the extracellular domain of human L-selectin joined to the Fc domain of a human G2 immunoglobulin (human) (P14151 39-332, change not shown): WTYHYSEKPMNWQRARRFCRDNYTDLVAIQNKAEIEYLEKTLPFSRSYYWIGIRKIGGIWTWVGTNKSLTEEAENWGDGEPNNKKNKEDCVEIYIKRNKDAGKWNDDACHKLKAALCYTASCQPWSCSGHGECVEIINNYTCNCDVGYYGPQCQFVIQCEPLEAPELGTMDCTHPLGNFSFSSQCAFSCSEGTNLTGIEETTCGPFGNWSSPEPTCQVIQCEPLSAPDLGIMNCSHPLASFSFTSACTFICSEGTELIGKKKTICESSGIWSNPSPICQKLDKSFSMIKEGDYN

Substance “DREG-56, blocking monoclonal anti-L-selectin antibody” yielded a concentration giving complete inhibition of 300 nM.
